Assay results published in PMC12096953, “Insights into heme degradation and hydrogen peroxide-induced dimerization of human neuroglobin” (Bioscience Reports, 2025).
Substitutions are numbered along the chain they refer to. Names and notes keep the numbering of the source.

B1: wild-type human neuroglobin (natural protein, UniProt Q9NPG2 1-151, looked up)
chain: MERPEPELIRQSWRAVSRSPLEHGTVLFARLFALEPDLLPLFQYNCRQFSSPEDCLSSPEFLDHIRKVMLVIDAAVTNVEDLSSLEEYLASLGRKHRAVGVKLSSFSTVGESLLYMLEKCLGPAFTPATRAAWSQLYGAVVQAMSRGWDGE
notes: human neuroglobin (hNgb), described as a protein of 151 amino acids; Heme b protein; The dimers seen arise after H2O2 treatment and are held by covalent Tyr-Tyr links; also called hNgb; wild-type hNgb
B2: human neuroglobin Y44AC46AC55A variant (natural protein, UniProt Q9NPG2 1-151, looked up)
chain: B1 chain with Y44A, C46A, C55A
notes: human neuroglobin (hNgb) with Y44A, C46A and C55A; also called triple variant
B3: human neuroglobin Y44F variant (natural protein, UniProt Q9NPG2 1-151, looked up)
chain: B1 chain with Y44F
notes: human neuroglobin (hNgb) with Y44F
B4: human neuroglobin Y44A variant (natural protein, UniProt Q9NPG2 1-151, looked up)
chain: B1 chain with Y44A
notes: human neuroglobin (hNgb) with Y44A; also called hNgb Y44A

How the values were obtained:
[1] = molecular target: the molecule itself; experiment: SEC; HPLC-SEC of wild-type hNgb, 1 µg/µL, 15-fold H2O2, 20 h at 4°C, with or without the spin trap MNP (10 µg/µL)
[2] = molecular target: the molecule itself; experiment: SEC-MALS; HPLC-SEC-PDA-MALS, Superdex 200 10/300 GL, 1x PBS pH 7.4, 25°C, detection at 412 nm; 1 μg/μL protein incubated 20 h at 4°C with different molar excess of H2O2 before the run; monomer to covalent dimer

Protein	percent dimerization (15-fold H2O2, with MNP) [1]	percent dimerization (15-fold H2O2, without MNP) [1]	stoichiometry N [2]
B1	8.1%	18.7%	2
B2	–	–	2
B3	–	–	2
B4	–	–	2
